Residue numbers refer to the chain shown, from its start.
T1: mouse Tie1 Fc (Mus musculus, UniProt Q06806)
T1 construct: both dimeric (Tie1-Fc fusion protein) and monomeric (Tie1-HIS) versions of the extracellular domain of the Tie1 were used
T1 sequence (Q06806 23-755 limits assumed): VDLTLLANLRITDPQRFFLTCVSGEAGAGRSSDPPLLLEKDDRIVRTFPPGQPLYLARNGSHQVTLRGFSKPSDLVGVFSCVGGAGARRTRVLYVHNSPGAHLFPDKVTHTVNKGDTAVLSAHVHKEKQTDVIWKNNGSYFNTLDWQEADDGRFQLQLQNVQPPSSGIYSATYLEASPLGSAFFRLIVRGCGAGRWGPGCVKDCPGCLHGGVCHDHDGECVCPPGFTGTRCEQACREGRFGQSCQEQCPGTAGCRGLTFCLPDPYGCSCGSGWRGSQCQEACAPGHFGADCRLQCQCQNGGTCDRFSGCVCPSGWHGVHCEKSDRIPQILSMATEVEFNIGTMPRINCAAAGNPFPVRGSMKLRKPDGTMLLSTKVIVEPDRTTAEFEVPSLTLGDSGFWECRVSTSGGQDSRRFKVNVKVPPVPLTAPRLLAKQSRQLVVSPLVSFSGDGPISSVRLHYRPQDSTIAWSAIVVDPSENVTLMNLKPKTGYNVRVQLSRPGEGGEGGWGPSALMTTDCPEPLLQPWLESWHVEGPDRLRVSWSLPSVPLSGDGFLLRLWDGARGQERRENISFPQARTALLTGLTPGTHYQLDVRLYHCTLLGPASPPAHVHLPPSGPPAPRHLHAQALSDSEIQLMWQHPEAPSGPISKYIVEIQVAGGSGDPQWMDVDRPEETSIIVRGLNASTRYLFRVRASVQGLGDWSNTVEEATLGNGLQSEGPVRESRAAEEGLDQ

B1: E3: human anti-Tie1 antibody from phage Fab library, reformatted as IgG; HC variable SEQ ID NO:114, LC variable SEQ ID NO:116 (antibody, V domains shown)
VH: EVQLLESGGGLVQPGGSLRLSCAASGFTFSMYGMVWVRQAPGKGLEWVSVISPSGGNTGYADSVKGRFTISRDNSKNTLYLQVNSLRAEDTAVYYCARAPRGYSYGYYYWGQGTLVTVSSASTKGPSVFPLAPSSKSTSGG
VL: DIQMTQSPLSLSASVGDRVTITCRASQGIGHYLAWYQQKPGKVPKLLIYTASTLQSGVPSRFSGSGSGTDFTLTINSLQPEDVATYYCQQFNSYPHTFGQGTRLDIK
modifications: IgG constant regions; Synthetically generated peptide
B2: DX-2210: E3 antibody in which the light chain has been germlined (antibody, V domains shown)
VH: B1 VH
VL: B1 VL with L9S, N76S, D105E

Columns and labels:
mouse Tie1 = molecular target: T2, mouse Tie1 (Mus musculus, UniProt Q06806); test: Flow cytometry on mouse endothelial cell lines; format: binding; conditions: MS1, Le-2, Bend3, SVEC, biotinylated antibody
T2 construct: host or cells: MS1, Le-2, Bend3, SVEC
T2 sequence (Q06806 23-1134): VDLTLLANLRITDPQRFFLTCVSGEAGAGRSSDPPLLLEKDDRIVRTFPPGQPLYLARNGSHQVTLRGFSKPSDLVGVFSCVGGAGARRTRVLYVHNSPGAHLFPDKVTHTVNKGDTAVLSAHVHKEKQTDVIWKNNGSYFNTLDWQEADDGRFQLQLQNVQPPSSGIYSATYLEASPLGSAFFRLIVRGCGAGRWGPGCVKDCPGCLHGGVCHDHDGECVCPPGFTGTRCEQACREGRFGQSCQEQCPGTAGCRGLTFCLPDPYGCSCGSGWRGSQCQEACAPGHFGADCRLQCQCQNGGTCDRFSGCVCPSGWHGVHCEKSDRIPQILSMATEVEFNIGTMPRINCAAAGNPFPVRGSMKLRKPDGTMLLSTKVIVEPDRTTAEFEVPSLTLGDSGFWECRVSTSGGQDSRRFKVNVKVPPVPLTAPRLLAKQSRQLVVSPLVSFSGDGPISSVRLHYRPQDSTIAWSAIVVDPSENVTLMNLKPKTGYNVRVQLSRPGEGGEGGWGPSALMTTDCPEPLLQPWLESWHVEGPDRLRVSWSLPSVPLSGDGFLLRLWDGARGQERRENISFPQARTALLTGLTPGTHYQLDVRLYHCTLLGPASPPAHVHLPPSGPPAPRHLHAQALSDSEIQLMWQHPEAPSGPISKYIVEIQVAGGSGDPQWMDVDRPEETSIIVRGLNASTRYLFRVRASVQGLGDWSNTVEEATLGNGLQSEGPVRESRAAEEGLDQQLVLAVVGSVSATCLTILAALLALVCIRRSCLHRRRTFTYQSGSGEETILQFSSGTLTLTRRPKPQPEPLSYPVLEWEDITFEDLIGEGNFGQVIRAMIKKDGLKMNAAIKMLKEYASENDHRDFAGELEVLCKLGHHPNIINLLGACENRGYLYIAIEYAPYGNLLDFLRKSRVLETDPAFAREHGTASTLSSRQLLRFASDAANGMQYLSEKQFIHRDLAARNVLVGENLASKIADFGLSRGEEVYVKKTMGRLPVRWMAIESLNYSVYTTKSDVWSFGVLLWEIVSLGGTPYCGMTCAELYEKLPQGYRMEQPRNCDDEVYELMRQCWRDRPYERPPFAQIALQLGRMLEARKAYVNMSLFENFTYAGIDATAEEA
Protocol: We evaluated if E3 cross reacts with mouse Tie1 in situ and thus if we can evaluate E3 activity in mouse tumor xenograft models binding to mouse endothelial cells was tested and compared with human and transfected cell lines.
Specific binding of the Tie1 antibodies and of control Mabs to mouse endothelial cells was measured by flow cytometry analysis (FACSscan, Becton Dickinson, Oxnard, Epics, Coulter). Mouse endothelial cell lines MS1, Le-2, Bend3, SVEC (ATCC, Rockville) and Tie1 transfected Le-2 cells were stained. Cell staining was modified from existing protocols. About 200,000 cells were used in each experiment: after trypsinization, cells were washed one time in PBS and resuspended PBS, 10% heat inactivated human serum (incubation buffer). […] After the final incubation step bound antibodies were detected by means of flow cytometry on a FACSCan and Epics Altra (Becton Dickinson, Oxnard, Coulter) and results analyzed.
Intracellular Tie1 was measured as described above, except for the addition of Saponin to the incubation buffer to a final concentration of 0.1% during incubations. […] The binding pattern in mouse cell lines detected by flow cytometry is different from the binding pattern in HUVEC in that in mouse cells there is a greater cell surface staining than that compared to primary human endothelial cell lines. […]

mouse Tie1 Fc = molecular target: T1, mouse Tie1 Fc; test: BIAcore, mouse Tie1 Fc over IgG coated on CM5 chip; format: binding; conditions: IgG immobilised; Mouse Tie1 Fc analyte
Protocol: In order to evaluate if the binding behavior had been affected in any way by the conversion of the somatic mutations back to germline, the germlined antibody was produced and tested as an IgG. The germlined E3 was reformatted to an IgG as described. This was then used to transiently transfect HEK293T cells using established procedures. The IgG was purified from the culture supernatant using protein A column chromatography using established procedures and the subsequent IgG was then tested for binding activity using surface plasmon resonance (BIAcore). The germlined E3 IgG1 stock solution 0.63 mg/ml (2146-002) was diluted 1/50 in a buffer of pH 4.5 and the parental E3 IgG1 stock solution 0.56 mg/ml (2143-001) was diluted 1/50 in a buffer of pH 4.5. The IgG were directly coated via onto a CM5 chip. The surface of the chips was activated with a 7 minute pulse of 0.05M NHS/0.2M EDC and the IgG was flowed over until 780RU germlined E3-IgG and 728 non germlined E3 IgG was coated onto the surface. All flow cells were subsequently deactivated with a 7 minute pulse of 1M ethanolamine hydrochloride pH8,5. All analysis was performed in HBS buffer. Purified recombinant mouse Tie1 Fc was diluted 1/6,5 in HBS to obtain a 400 nM stock solution. Serial dilutions were made to obtain 200 nM, 100 nM, 50 nM and 25 nM Tie1 Fc stocks. For analysis of the association phase samples were injected at 30 μl/min for 8.3 minutes using kinject program. This was followed by a 40 minutes dissociation phase. Any antigen remaining associated to the surface was stripped from the IgG surface at a flow of 50 μl/min with two injections of 10 mM glycine pH1.5 for 30 seconds. All samples were run and analyzed in duplicate
Sensorgrams were analyzed using the simultaneous ka/kd fitting program with 1:1 model in the BIAEVALUATION™ software 3.1.

| Molecule | binding to mouse endothelial cell lines (mouse Tie1) | koff (mouse Tie1 Fc) | kon (mouse Tie1 Fc) |
| --- | --- | --- | --- |
| B1 | binds to mouse endothelial cell lines | 9.2e-05 s⁻¹ | 6170 M⁻¹ s⁻¹ |
| B2 | stained positively | 8.99e-05 s⁻¹ | 6000 M⁻¹ s⁻¹ |

Source: patent US20100196361A1, “Method of inhibition of vascular development using an antibody” (DYAX CORP., priority 2003, published 2010)
